Consider 37 sequences from the supplement of paper PMC10724198.

The subject of data set [1] is Saccharomyces cerevisiae. Put plainly: protein stability index of tFT-peptide fusion in deletion strain of DOA10 (PSI (0-1 scale)); higher = more stable (slower turnover). How it is done: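 MPS profiling in S. cerevisiae of two library types built from selected 12-aa C-degron peptides (IN1, IN2, LN1, LN3, VN2, R1-R5, W1-W3, Atg1 and Rpa12 C-termini): saturation mutagenesis libraries and C-terminal +1 capping libraries (13 aa). Each peptide is fused to the C-terminus of a sfGFP-mCherry timer, after a GGGS linker. Cells are FACS-sorted into 8 mCherry/sfGFP bins and sequenced. PSI runs from 0 (unstable) to 1 (stable), measured once in wild type and in the das1Δ or doa10Δ background.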

In data set [2] the test system is Saccharomyces cerevisiae. Put plainly: protein stability index of tFT-peptide fusion in wild type (PSI (0-1 scale)); higher = more stable (slower turnover). Conditions: genetic background: wild type.
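For protein stability index of tFT-peptide fusion in deletion strain of DOA10 in this document: PSI per variant is the weighted mean of its sequencing read distribution over the sorted stability bins, counting only variants with over 10 reads summed across bins.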
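For protein stability index of tFT-peptide fusion in wild type in this document: PSI derived as read-weighted mean over the 8 sorting bins, only variants exceeding 10 total reads kept, mCherry placed adjacent to the peptide and sfGFP distal.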

For the sequence CLVSLPILLFLR, the protein stability index with Saccharomyces cerevisiae [1] was determined as 0.564; in the data set on Saccharomyces cerevisiae [2], 0.0512.
For CLVSLPILLQFR the same measures were 0.642 and 0.344.
The corresponding values for CLVSLPILRFFR are 0.657 and 0.612.
The corresponding values for CLVSLPILYFFR are 0.605 and 0.468.
In the case of CLVSLPLLLFFR, the values for the protein stability index in the data set with Saccharomyces cerevisiae [1] and in the data set on Saccharomyces cerevisiae [2] were 0.606 and 0.0578, respectively.
As to CLVSLPRLLFFR, the protein stability index turned out to be 0.664 with Saccharomyces cerevisiae [1] and 0.0729 with Saccharomyces cerevisiae [2].
On to CNVSLPILLFFR, for which the protein stability index in the data set on Saccharomyces cerevisiae [1] was 0.642; in the data set with Saccharomyces cerevisiae [2], 0.0527.
The corresponding values for CWVSLPILLFFR are 0.54 and 0.0534.
For ELYMCSVGCWFR the same measures were 0.651 and 0.388.
For ESLRVLLPLYFR the same measures were 0.683 and 0.308.
As for GEYMCSVGCWFR, the protein stability index in the data set on Saccharomyces cerevisiae [1] is 0.667; in the data set on Saccharomyces cerevisiae [2], 0.425.
For GGYMCSVGCWFR the same measures were 0.687 and 0.439.
The corresponding values for GLGMCSVGCWFR are 0.674 and 0.336.
Turning to GLSMCSVGCWFR, the protein stability index is 0.671 with Saccharomyces cerevisiae [1] and 0.235 with Saccharomyces cerevisiae [2].
The corresponding values for GLYECSVGCWFR are 0.678 and 0.526.
The corresponding values for GLYMCSQGCWFR are 0.691 and 0.463.
The corresponding values for GLYMCSVFCWFR are 0.365 and 0.222.
Take GLYMCSVGCCFR: the results for the protein stability index in the data set with Saccharomyces cerevisiae [1] and with Saccharomyces cerevisiae [2] were 0.651 and 0.611, respectively.
For GLYMCSVGCWFA the same measures were 0.371 and 0.35.
For GLYMCSVGCWFRA the same measures were 0.44 and 0.225.
Take GLYMCSVGCWFRC: the protein stability index in the data set with Saccharomyces cerevisiae [1] amounted to 0.433; with Saccharomyces cerevisiae [2], 0.188.
The corresponding values for GLYMCSVGCWFRI are 0.455 and 0.11.
The corresponding values for GLYMCSVGCWRR are 0.662 and 0.62.
For GLYMCSVGEWFR, the protein stability index in the data set with Saccharomyces cerevisiae [1] was 0.686; in the data set with Saccharomyces cerevisiae [2] it was 0.663.
The corresponding values for GLYMCSVGYWFR are 0.603 and 0.213.
For GLYMCSVHCWFR the same measures were 0.453 and 0.371.
For GLYMCTVGCWFR the same measures were 0.527 and 0.219.
In the case of GLYMGSVGCWFR, the results for the protein stability index with Saccharomyces cerevisiae [1] and in the data set with Saccharomyces cerevisiae [2] were 0.704 and 0.303, respectively.
For GLYTCSVGCWFR the same measures were 0.682 and 0.392.
As to GLYWCSVGCWFR, the protein stability index in the data set on Saccharomyces cerevisiae [1] turned out to be 0.646; in the data set on Saccharomyces cerevisiae [2], 0.246.
For GPYMCSVGCWFR the same measures were 0.667 and 0.413.
For GTYMCSVGCWFR the same measures were 0.675 and 0.344.
The corresponding values for HITLPMCPLLLR are 0.657 and 0.332.
For NSLRVLLPLYFR, the protein stability index turned out to be 0.662 with Saccharomyces cerevisiae [1] and 0.357 in the data set on Saccharomyces cerevisiae [2].
For RCLRVLLPLYFR the same measures were 0.647 and 0.257.
The corresponding values for RELRVLLPLYFR are 0.684 and 0.19.
For RHTRLDAIYFRI the same measures were 0.679 and 0.517.
